Test [1] has as its target T1, SBP-tagged HER3-ECD (human, UniProt P21860 20-643).
T1 construct: not shown: SBP tag
The test can be described thus: plate assay: SBP-tagged HER3-ECD on streptavidin plate, antibody titrated, 10 nM Europium-labeled Heregulin-beta detected by time-resolved fluorescence; half-maximal rise of the Heregulin signal. The procedure:
On the next day the wells were washed three times with washing buffer (PBS+0.05% Tween-20) and blocked with PBS containing 1% BSA for one hour. After another three washes with washing buffer, 40 μl antibody solution (in Delfia Binding Buffer) was added to each well as a 2× stock of the desired final concentrations (10⁻³ to 10³ nM, alternatively 10⁻⁴ to 10² nM). Immediately […] of 20 nM Europium-labeled Heregulin-beta (PeproTech, Cat. #100-03) was added to achieve a final concentration of 10 nM. The plates were incubated on a shaker at room temperature for two hours. Following three washes with Delfia Wash Buffer, Delfia Enhancement Solution was added and incubated on a shaker for 15 minutes (light protected). Finally, the plates were measured in a Tecan Infinite F200 reader using a time-resolved fluorescence measurement protocol.

Test [2] addresses T2, HER3 ECD-HRG complex (Heregulin-activated Her-3 ECD) (human, UniProt P21860 20-643).
T2 construct: receptor-ligand complex made by preincubating HER3 ECD with a five-fold molar excess of Heregulin; also called Heregulin/Her-3 ECD; Heregulin-complexed Her-3 ECD
The test can be described thus: SPR Biacore 3000, antibody captured, 25 C. The procedure:
A CM5 series sensor was mounted into the system and was normalized in HBS-ET buffer (10 mM HEPES pH 7.4, 150 mM NaCl, 3 mM EDTA, 0.005% w/v Tween 20) according to the manufacturer's instructions. The sample buffer was the system buffer supplemented with 1 mg/ml CMD (Carboxymethyldextran). The system operated at 25° C. 10000 RU RAM-Fey (relative units of Fey-fragment Rabbit Anti-Mouse IgG/Jackson Laboratories) were immobilized according to the manufacturer's instructions using EDC/NHS chemistry on all flow cells. The sensor was deactivated using 1M ethanolamine.

The target of test [3] is T3, recombinant Thermus thermophilus SlyD FKBP-Her3 (TtSlyD-FKBP-Her3).
T3 construct: expressed in E. coli, the N-terminal methionine can be present or not; also called thermo SlyD-Her3; T.T.SlyD-Her3
T3 chain: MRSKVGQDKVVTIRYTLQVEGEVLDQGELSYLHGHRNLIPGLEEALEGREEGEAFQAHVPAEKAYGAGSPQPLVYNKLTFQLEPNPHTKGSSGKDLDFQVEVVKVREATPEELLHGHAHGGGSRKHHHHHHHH
The test can be described thus: SPR, antibody captured. How it is done:
In all assay the test antibodies were captured. The system was under the control of the software version V1.1. The instrument buffer was HBS-EP (10 mM HEPES (pH 7.4), 150 mM NaCl, 1 mM EDTA, 0.05% (w/v) P20). The system operated at 25° C. 30 μg/ml Rabbit polyclonal antibody (RAM IgG, (Rabbit anti Mouse IgG with Fc gamma specificity) GE Healthcare) in 10 mM sodium acetate buffer (pH 4.5) was immobilized using EDC/NHS chemistry according to the manufacturer's instructions on the spots 1, 2, 4 and 5 in the flow cells 1, 2, 3 and 4. The sensor was saturated using 1M ethanolamine. In each flow cell, referenced signals were calculated using spots 1-2 and spots 5-4, spot 3 served as a blanc control. […] The antibody capture level (CL) in response units was monitored. […] Thereafter, the antibody-antigen complex dissociation signal was recorded for 5 min. […] The recorded signal shortly before the end of the injection of the antigen was denoted as binding late (BL) in response units. The recorded signal shortly before the end of the recording of the dissociation is denoted as stability late (SL) in response units. The dissociation rate constants were determined calculated The antibody-antigen complex stability in minutes was calculated with the following formula: […]. The Molar Ratio was calculated with the formula: MW (antibody)/MW (antigen) *BL (antigen)/CL (antibody). […]
(Surface plasmon resonance follows binding to a sensor surface in real time, without labels.)

The target of test [4] is T4, TtSlyD-Wildtype.
T4 construct: scaffold without insert; N-terminal methionine can be present or not; also called T.T.SlyD-wt; wild type Thermus thermophilus SlyD protein
T4 chain: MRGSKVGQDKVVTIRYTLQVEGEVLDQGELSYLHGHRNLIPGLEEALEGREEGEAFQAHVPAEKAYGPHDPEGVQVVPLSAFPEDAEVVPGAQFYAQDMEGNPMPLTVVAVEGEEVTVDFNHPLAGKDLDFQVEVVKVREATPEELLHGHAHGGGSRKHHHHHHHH
In words: SPR Biacore T100, antibody captured, 25 C.

The target in test [5] is T5, TtSlyDcys-Her3.
T5 chain: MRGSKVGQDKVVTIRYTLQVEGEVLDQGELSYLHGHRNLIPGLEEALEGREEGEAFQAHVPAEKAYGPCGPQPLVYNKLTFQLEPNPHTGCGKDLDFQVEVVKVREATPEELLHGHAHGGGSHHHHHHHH
In words: ELISA, antigen coated, hybridoma supernatant. The procedure: For the ELISA screening an antigen down format was used. […] Hybridoma Supernatant was added to the plates and incubated for 1 h at room temperature. Bound antibody was detected with a HRP-labeled F(ab′)₂ goat anti-mouse Fcγ (Dianova) and ABTS (Roche) was used as a HRP-substrate.
As negative controls the scaffold proteins TtSlyDcas and TgSlyDΔIF were used.
(In an ELISA, binding on a coated surface is turned into a signal by an enzyme label.)

Test [6] addresses T5, TtSlyDcys-Her3. The test can be described thus: SPR Biacore T200, antibody captured, 25 C. How it is done:
A Biacore T200 instrument (GE Healthcare) was mounted with a CM5 series sensor. The sensor was normalized in HBS-ET buffer (10 mM HEPES pH 7.4, 150 mM NaCl, 3 mM EDTA, 0.05% w/v Tween 20) according to the manufacturer's instructions. The sample buffer was the system buffer supplemented with 1 mg/ml CMD (Carboxymethyldextran, Sigma #86524). The system operated at 25° C. 6500 RU RAM-Fcγ (relative units of Fcγ-fragment RamlgG, GE Healthcare) were immobilized according to the manufacturer's instructions using amine coupling EDC/NHS chemistry on all four flow cells. The sensor was deactivated using 1M ethanolamine. […] Concentration dependent kinetics were measured. […] All analytes were injected for 5 min association time and 10 min dissociation time at 100 μl/min flow rate. The sensor capture system was regenerated by a 3 min injection at 10 μl/min of 10 mM glycine pH 1.7. Where possible kinetic data was evaluated using the Biacore T200 evaluation software.

B1: anti-HER3 antibody M-46-01 (antibody, V domains shown)
VH: QIQLQQSGPQLVRPGASVKISCKASGYSFTSYWMHWVKQRPGRGLEWIGMIDPSDGVTRLNQKFKDKATLTVDNSSSTAYMQLSSPTSEDSAVHYCARVDVLYWYFDVWGAGTTVTVSS
VL: DIVLTQSPASLAVSLGQRATISCRASKSISISGYSYMHWYQQKAGQPPKLLIYLTSNLESGVPARFSGSGSGTDFTLNIHPVEEEDAATYYCHHSRELPFTFGSGTKLEIK
notes: mouse hybridoma clone
For B1, the “EC50 (read off the curve)” value in test [1] is approximately 2 nM.

B2: anti-HER3 antibody M-08-11 (antibody, V domains shown)
VH: QAYLQQSGAELMRPGASVRMSCQASGYTFTSYTIHWLKQTPRQGLEWIGAIYPRNGDFSYNQKFKDKASLTVDTSSSTAYMHLSSLTSEDSAVYFCARTINYGDWFAYWGQGTLVTVSA
VL: DIQMIQSPASLFVSEGETVIITCRASENIYSNLAWYHQKKGKSPQVLVYAAIKLADGVPLRFSGSGSGTQFSLKINSLQSEDFGSYYCQHFWGPPYTFGSGTNLEIK
notes: mouse monoclonal antibody from hybridoma, tested as hybridoma supernatant or as antibody; also called M-011
Take B2: the “MR (Molar Ratio)” value in test [2] came to 1.1. For the same molecule, in test [3], the “ratio Ka (Thermus thermophilus SlyD FKBP-Her3)/Ka (HER3-ECD)” value was not below 1.5 ratio and the “ratio MR (Thermus thermophilus SlyD FKBP-Her3)/MR (HER3-ECD)” value is not below 2 ratio. Also, the binding result in test [4] is on record as “no binding (tested: 90 nM)”. In addition, the “EC50 (read off the curve)” value in test [1] is approximately 7 nM.

B3: anti-HER3 antibody M-17-02 (antibody, V domains shown)
VH: EVQLQQSGTVLARPGASVKMSCKASGYSFTSYWIHWVKQRPGQGLEWIGAIYPGNSDTTYNQKFKGKAKLTAVTSASTAYMELSSLTNEDSAVYYCARTGVWTSYYFDYWGQGTTLTVSS
VL: DIQMTQSPASLSASVGETVTITCRASENIYSNLAWYQQKQGKSPQLLVYAATNLADGVPSRFSGSGSGTQFSLRINSLQPEDFGSYYCQHFYGTPFTFGTGTKLEIK
notes: mouse hybridoma clone
For B3, in test [5], the “OD 405 nm” value is 1.55 OD.

B4: anti-HER3 antibody M-43-01 (antibody, V domains shown)
VH: EVQLQQSGTVLARPGASVKMSCKASDYTFSNYWVHWVKQRPGQGLEWIGAIYPGNGDSTYYQKFKGKATLTAVTSTSTAYMDLSSLTNGDSAVYFCTRSGVGYNYYFDYWGQGTTLTVSS
VL: DIQMTQSPASLSASVGETVTITCRASENIYSNLAWYQQKQGKSPQLLVYIATNLADGVPSRFSGSGSGTQFSLKINSLQPEDLGSYYCQHFYGTPFTFGTGTKLEIE
notes: mouse hybridoma clone
On to B4, for which the “OD 405 nm” value in test [5] amounted to 3.5 OD. In addition, in test [6], the Kd came to 2.9 nM, the “MR (Molar Ratio)” value was 1.7, the koff was 0.00016 s⁻¹ and the kon is 54000 M⁻¹ s⁻¹.

As a reminder, the EC50 (read off the curve) is the concentration that produces a half-maximal response. A lower EC50 (read off the curve) goes with higher potency in that assay. Usually Kd stands for the concentration at which binding is half-saturated. The koff is the rate constant with which the complex falls apart. One may read the kon as the second-order rate constant of association.

The values are drawn from patent publication US20180094062A1 (Hoffmann-La Roche, published 2018).
